Assay results taken from US20180037644A1 (Pfizer, published 2018).
Changes are numbered by the printed parent chain. Read-outs that look alike come from different tables or passages of the source.

Columns and labels:
Assay in all cases: cell-based or functional assay
human IL-33 (mm2) [1] = target: T1, human IL-33 (mm2) (human, UniProt O95760 112-270)
T1 chain: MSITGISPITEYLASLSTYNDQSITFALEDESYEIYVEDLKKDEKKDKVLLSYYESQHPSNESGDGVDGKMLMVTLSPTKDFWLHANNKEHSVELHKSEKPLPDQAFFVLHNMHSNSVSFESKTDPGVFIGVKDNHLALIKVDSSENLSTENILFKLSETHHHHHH

[2] = target: T2, cynomolgus monkey IL-33 (cys mut) (cynomolgus monkey)
T2 chain: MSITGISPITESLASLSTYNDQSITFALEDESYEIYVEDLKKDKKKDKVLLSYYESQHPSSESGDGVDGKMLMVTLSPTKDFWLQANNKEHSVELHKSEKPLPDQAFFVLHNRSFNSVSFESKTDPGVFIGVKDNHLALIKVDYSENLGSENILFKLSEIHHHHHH

human IL-33 (mm2) [3] = target: T1, human IL-33 (mm2)
[4] = target: T2, cynomolgus monkey IL-33 (cys mut)
[5] = target: T3, native human IL-33 from human lung fibroblast (HFL-1) lysate (human, UniProt O95760 1-270, limits assumed)
T3 sequence (looked up): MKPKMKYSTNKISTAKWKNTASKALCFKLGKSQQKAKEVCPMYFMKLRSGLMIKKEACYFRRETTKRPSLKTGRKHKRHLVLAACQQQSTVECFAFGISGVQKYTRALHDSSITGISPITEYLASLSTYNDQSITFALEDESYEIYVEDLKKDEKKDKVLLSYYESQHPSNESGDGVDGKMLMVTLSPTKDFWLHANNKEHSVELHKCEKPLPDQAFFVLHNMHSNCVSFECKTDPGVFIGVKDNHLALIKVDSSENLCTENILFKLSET

human IL-33 (mm2) [6] = target: T1, human IL-33 (mm2)
[7] = target: T2, cynomolgus monkey IL-33 (cys mut)
human IL-33 (mm2) [8] = target: T1, human IL-33 (mm2)
human IL-33 WT (R&D) [9] = target: T4, human IL-33 WT (R&D) (human, UniProt O95760 112-270)
T4 sequence: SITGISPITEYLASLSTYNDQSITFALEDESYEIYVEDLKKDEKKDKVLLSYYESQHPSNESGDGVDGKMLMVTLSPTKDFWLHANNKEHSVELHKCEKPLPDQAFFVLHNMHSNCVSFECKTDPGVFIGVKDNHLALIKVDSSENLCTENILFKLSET

human IL-33 (mm2) [10] = target: T1, human IL-33 (mm2)
human IL-33 WT (R&D) [11] = target: T4, human IL-33 WT (R&D); remark: listed apart in the source
human IL-33 (mm2) [12] = target: T1, human IL-33 (mm2)
human IL-33 WT (R&D) [13] = target: T4, human IL-33 WT (R&D); remark: listed apart in the source
[14] = target: T5, wild-type cynomolgus monkey IL-33 (cynomolgus monkey)
T5 chain: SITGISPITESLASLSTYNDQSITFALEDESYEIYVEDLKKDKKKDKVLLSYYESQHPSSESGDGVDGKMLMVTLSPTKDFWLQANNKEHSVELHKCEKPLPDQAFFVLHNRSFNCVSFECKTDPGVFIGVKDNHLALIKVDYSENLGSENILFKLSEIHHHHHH

[15] = target: T2, cynomolgus monkey IL-33 (cys mut)
human IL-33 (mm2) [16] = target: T1, human IL-33 (mm2)

B1: rat 7E8 (7E8 hybridoma) (antibody, V domains shown)
VH: EVQLVETGGGLVQPGRSLKLSCKTSGFTFSSYWMYWIRQAPGKGLEWVSSITPNGGNTYYPDSVKGRFTISRDNAENTIYLQMSSLRSEDTATYFCAKGHYYYTSYSLGYWGQGSLVTVSS
VL: EIQMTQSPSVLSASVGDRVTLSCKASQNINKHLDWYQQKLGEAPKLLIYFTNNLQTGIPSRFSGSGSGTDCTLTINSLQPGDVATYFCFQYNNGWTFGGGTKLELD
With B1 the “IC50, HEK293 ST2 NFkB” value (human IL-33 (mm2) [1]) was 18 pM, the “IC50, HEK293 ST2 NFkB” value [2] was 32 pM and the “IC50, HEK293 ST2 NFkB” value (human IL-33 (mm2) [3]) was 43 pM. The “IC50, HEK293 ST2 NFkB” value [4] was 210 pM, the “% inhibition 0.1 nM Ab, HEK293 ST2 NFkB” value [5] was 112% and the “% inhibition 1 nM Ab, HEK293 ST2 NFkB” value [5] was 110%. The “% inhibition 10 nM Ab, HEK293 ST2 NFkB” value [5] was 113% and the “IC50, HEK293 ST2 NFkB” value (human IL-33 (mm2) [6]) was 24 pM.

B2: IL33-55 (antibody, human IgG1, kappa, V domains shown)
VH: EVQLVESGGGLVQPGGSLRLSCAASGFTFSSYWMYWVRQAPGKGLEWVASITPNGGDTYYPDSVKGRFTISRDNAKNSLYLQMNSLRAEDTAVYYCARGHYYYTSYSLGYWGQGTLVTVSS
VL: DIQMTQSPSSLSASVGDRVTITCKASQNINKHLDWYQQKPGKAPKLLIYFTNNLQTGVPSRFSGSGSGTDFTLTISSLQPEDFATYYCFQYNNGWTFGGGTKVEIKR
For B2, the “IC50, HEK293 ST2 NFkB” value [7] was 190 pM and the “IC50, HEK293 ST2 NFkB” value (human IL-33 (mm2) [8]) was 84 pM.

B3: IL33-56 (antibody, human IgG1, kappa, V domains shown)
VH: B2 VH with D57E
VL: B2 VL
For B3, the “IC50, HEK293 ST2 NFkB” value [7] was 104 pM and the “IC50, HEK293 ST2 NFkB” value (human IL-33 (mm2) [8]) was 53 pM.

B4: rat 9B3 (9B3 hybridoma) (antibody, V domains shown)
VH: EVQLVETGGGLVQPGRSLKLSCVASGFTFSNYWMYWIRQAPGMGLEWVSSINNDGGNTYYLDSVKGRFTISRNNAENTVYLQMNSLRSEDTATYYCAKGHYSYSSYSFSYWGQGTLVTVSS
VL: B1 VL with E1D, Q27H, Y36C, L40V, C71Y, N76S, G81E, N93S, D106K
B4 was tested, and the “IC50, HEK293 ST2 NFkB” value (human IL-33 (mm2) [1]) was 76 pM, the “IC50, HEK293 ST2 NFkB” value [2] was 2720 pM and the “IC50, HEK293 ST2 NFkB” value (human IL-33 (mm2) [3]) was 170 pM. The “% inhibition at 20 nM, HEK293 ST2 NFkB” value [4] was 23%, the “% inhibition 0.1 nM Ab, HEK293 ST2 NFkB” value [5] was 55.1% and the “% inhibition 1 nM Ab, HEK293 ST2 NFkB” value [5] was 99.2%. For the same binder, the “% inhibition 10 nM Ab, HEK293 ST2 NFkB” value [5] was 108%.

B5: IL33-68 (antibody, human IgG1, kappa, V domains shown)
VH: B2 VH with D57N, S105A
VL: B2 VL
B5 was tested, and the “IC50, HEK293 ST2 NFkB” value [7] was 62 pM and the “IC50, HEK293 ST2 NFkB” value (human IL-33 (mm2) [8]) was 46 pM.

B6: rat 30A1 (30A1 hybridoma) (antibody, V domains shown)
VH: QVNLLQSGATLVKPGASMKMSCKASGYSFTDYWVSWVKQSHGKSLEWIGEIYPNSGANNFNKEFKDKATLTVDKSTSTAYMELTRLTSEDSAVYYCTRGPYYYSSQIIFAYWGQGTLVTVSS
VL: IIVMTQSPKSMSISVGDRVTMNCKASQNVGNNIAWYRQKPGQSPELLIYYASNRYTGVPDRFTGGGYGTDFTLTINSVQAEDAAFYYCQRIYNSPPTFGGGTKVELK
For B6, the “IC50, HEK293 ST2 NFkB” value (human IL-33 (mm2) [1]) was 665 pM, the “IC50, HEK293 ST2 NFkB” value [2] was 140 pM and the “IC50, HEK293 ST2 NFkB” value (human IL-33 (mm2) [3]) was 470 pM. The “IC50, HEK293 ST2 NFkB” value [4] was 2950 pM, the “% inhibition 0.1 nM Ab, HEK293 ST2 NFkB” value [5] was 35.4% and the “% inhibition 1 nM Ab, HEK293 ST2 NFkB” value [5] was 77.3%. For the same binder, the “% inhibition 10 nM Ab, HEK293 ST2 NFkB” value [5] was 108%.

B7: IL33-136 (antibody, human IgG1, kappa, V domains shown)
VH: B2 VH with D57E
VL: B2 VL with N93Q
For B7, the “IC50, HEK293 ST2 NFkB WT IL-33” value (human IL-33 WT (R&D) [9]) was 37 pM and the “IC50, whole blood IFNγ” value (human IL-33 (mm2) [10]) was 98 pM.

B8: rat 30B11 (30B11 hybridoma) (antibody, V domains shown)
VH: QVKLLQSGAALVKPGASVKMSCATSGFSFTDYWVSWVKQSHGKGLEWIGEIYPNSGADNFNENFKGKATLTVDKSTSTAYMELSRLTSEDSAIYYCTRGPYYYSTQIIFAYWGQGTLVTVSS
VL: B6 VL with I1N, I33L, R37Q, E45K, K107R
For B8, the “IC50, HEK293 ST2 NFkB” value (human IL-33 (mm2) [1]) was 56 pM, the “IC50, HEK293 ST2 NFkB” value [2] was 84 pM and the “IC50, HEK293 ST2 NFkB” value (human IL-33 (mm2) [3]) was 38 pM. For the same binder, the “IC50, HEK293 ST2 NFkB” value [4] was 200 pM, the “% inhibition 0.1 nM Ab, HEK293 ST2 NFkB” value [5] was 93.5% and the “% inhibition 1 nM Ab, HEK293 ST2 NFkB” value [5] was 108%. The “% inhibition 10 nM Ab, HEK293 ST2 NFkB” value [5] was 113%.

B9: IL33-158-152 (antibody, human IgG1, kappa)
heavy: EVQLVESGGGLVQPGGSLRLSCAASGFTFSSYWMYWVRQAPGKGLEWVAAITPNAGEDYYPESVKGRFTISRDNAKNSLYLQMNSLRAEDTAVYYCARGHYYYTSYSLGYWGQGTLVTVSSASTKGPSVFPLAPSSKSTSGGTAALGCLVKDYFPEPVTVSWNSGALTSGVHTFPAVLQSSGLYSLSSVVTVPSSSLGTQTYICNVNHKPSNTKVDKKVEPKSCDKTHTCPPCPAPEAAGAPSVFLFPPKPKDTLMISRTPEVTCVVVDVSHEDPEVKFNWYVDGVEVHNAKTKPREEQYNSTYRVVSVLTVLHQDWLNGKEYKCKVSNKALPAPIEKTISKAKGQPREPQVYTLPPSREEMTKNQVSLTCLVKGFYPSDIAVEWESNGQPENNYKTTPPVLDSDGSFFLYSKLTVDKSRWQQGNVFSCSVMHEALHNHYTQKSLSLSPG
light: DIQMTQSPSSLSASVGDRVTITCKASQNINKHLDWYQQKPGKAPKLLIYFTNNLQTGVPSRFSGSGSGTDFTLTISSLQPEDFATYYCFQYNQGWTFGGGTKVEIKRTVAAPSVFIFPPSDEQLKSGTASVVCLLNNFYPREAKVQWKVDNALQSGNSQESVTEQDSKDSTYSLSSTLTLSKADYEKHKVYACEVTHQGLSSPVTKSFNRGEC
B9 was tested, and the “IC50, HEK293 ST2 NFkB” value (human IL-33 WT (R&D) [11]) was 620 pM and the “IC50, HEK293 ST2 NFkB” value (human IL-33 (mm2) [12]) was 95 pM.

B10: IL33-167-153 (antibody, human IgG1, kappa)
heavy: B9 heavy with A50S, E62D
light: B9 light with Q93N
For B10, the “IC50, HEK293 ST2 NFkB” value (human IL-33 WT (R&D) [11]) was 749 pM and the “IC50, HEK293 ST2 NFkB” value (human IL-33 (mm2) [12]) was 129 pM.

B11: 9B3 CDR graft (antibody, human IgG1, kappa, V domains shown)
VH: B2 VH with S31N, T52N, P53N, N54D, D57N, P61L, Y102S, T104S, L108F, G109S
VL: B2 VL with Q27H, N93S
For B11, the “IC50, HEK293 ST2 NFkB” value (human IL-33 (mm2) [6]) was 520 pM.

B12: 30B11 CDR graft (antibody, human IgG1, kappa, V domains shown)
VH: EVQLVESGGGLVQPGGSLRLSCAASGFTFTDYWVSWVRQAPGKGLEWVAEIYPNSGADNFNENFKGRFTISRDNAKNSLYLQMNSLRAEDTAVYYCARGPYYYSTQIIFAYWGQGTLVTVSS
VL: DIQMTQSPSSLSASVGDRVTITCKASQNVGNNLAWYQQKPGKAPKLLIYYASNRYTGVPSRFSGSGSGTDFTLTISSLQPEDFATYYCQRIYNSPPTFGGGTKVEIKR
In the case of B12, the “IC50, HEK293 ST2 NFkB” value (human IL-33 (mm2) [6]) is reported as 368 pM.

B13: 30B11 CDR graft_R71V (antibody, human IgG1, kappa, V domains shown)
VH: B12 VH with R72V
VL: B12 VL
With B13 the “IC50, HEK293 ST2 NFkB” value (human IL-33 (mm2) [6]) was 278 pM.

B14: IL33-265 (antibody, human IgG1, kappa, V domains shown)
VH: EVQLVESGGNLEQPGGSLRLSCTASGFTFSRSAMNWVRRAPGKGLEWVSGISGSGGRTYYADSVKGRFTISRDNSKNTLYLQMNSLSAEDTAAYYCAKDSYTTSWYGGMDVWGHGTTVTVSS
VL: DIQMTQSPSSVSASVGDRVTITCRASQGIFSWLAWYQQKPGKAPKLLIYAASSLQSGVPSRFSGSGSGTDFTLTISSLQPEDFAIYYCQQANSVPITFGQGTRLEIKR
B14 was tested, and the “IC50, HEK293 ST2 NFkB (DTT-pretreated IL-33)” value (human IL-33 WT (R&D) [13]) was 50 pM, the “Cynomolgus monkey:human IC50 ratio: wild-type IL-33” value [14] was 256 and the “IC50, HEK293 ST2 NFkB (DTT-pretreated IL-33)” value [14] was 12700 pM. For the same binder, the “Cynomolgus monkey:human IC50 ratio: cysteine mutant IL-33” value [15] was 109, the “IC50, HEK293 ST2 NFkB” value [15] was 1560 pM and the “IC50, HEK293 ST2 NFkB” value (human IL-33 (mm2) [16]) was 14 pM.
